Data taken from paper PMC12808597 (2025).

B1: mouse glucagon-like peptide-1 receptor, untagged (receptor)
chain: GPRPQGTTVSLSETVQKWREYRRQCQRFLTEAPLLATGLFCNRTFDDYACWPDGPPGSFVNVSCPWYLPWASSVLQGHVYRFCTAEGLWLHKDNSSLPWRDLSECEESKRGERNFPEEQLLSLYIIYTVGYALSFSALVIASAILVGFRHLHCTRNYIHLNLFASFILRALSVFIKDAALKWMYSTAAQQHQWDGLLSYQDSLGCRLVFLLMQYCVAANYYWLLVEGVYLYTLLAFSVFSEQRIFKLYLSIGWGVPLLFVIPWGIVKYLYEDEGCWTRNSNMNYWLIIRLPILFAIGVNFLIFIRVICIVVSKLKANLMCKTDIKCRLAKSTLTLIPLLGTHEVIFAFVMDEHARGTLRFIKLFTELSFTSFQGLMVAILYCFVNNEVQMEFRKCWERWRLEHLNIQRDCSMKPLKCPTSSVSSGATVGSSVYAATCQSSYS
B2: GLP-1R endogenously expressed in INS-1 832/3 clonal rat β-cells (receptor)
chain: GPRPQGATVSLSETVQKWREYRHQCQRFLTEAPLLATGLFCNRTFDDYACWPDGPPGSFVNVSCPWYLPWASSVLQGHVYRFCTAEGIWLHKDNSSLPWRDLSECEESKQGERNSPEEQLLSLYIIYTVGYALSFSALVIASAILVSFRHLHCTRNYIHLNLFASFILRALSVFIKDAALKWMYSTAAQQHQWDGLLSYQDSLGCRLVFLLMQYCVAANYYWLLVEGVYLYTLLAFSVFSEQRIFKLYLSIGWGVPLLFVIPWGIVKYLYEDEGCWTRNSNMNYWLIIRLPILFAIGVNFLVFIRVICIVIAKLKANLMCKTDIKCRLAKSTLTLIPLLGTHEVIFAFVMDEHARGTLRFVKLFTELSFTSFQGFMVAVLYCFVNNEVQMEFRKSWERWRLERLNIQRDSSMKPLKCPTSSVSSGATVGSSVYAATCQNSCS
B3: human glucagon-like peptide-1 receptor, untagged (receptor)
chain: RPQGATVSLWETVQKWREYRRQCQRSLTEDPPPATDLFCNRTFDEYACWPDGEPGSFVNVSCPWYLPWASSVPQGHVYRFCTAEGLWLQKDNSSLPWRDLSECEESKRGERSSPEEQLLFLYIIYTVGYALSFSALVIASAILLGFRHLHCTRNYIHLNLFASFILRALSVFIKDAALKWMYSTAAQQHQWDGLLSYQDSLSCRLVFLLMQYCVAANYYWLLVEGVYLYTLLAFSVLSEQWIFRLYVSIGWGVPLLFVVPWGIVKYLYEDEGCWTRNSNMNYWLIIRLPILFAIGVNFLIFVRVICIVVSKLKANLMCKTDIKCRLAKSTLTLIPLLGTHEVIFAFVMDEHARGTLRFIKLFTELSFTSFQGLMVAILYCFVNNEVQLEFRKSWERWRLEHLHIQRDSSMKPLKCPTSSLSSGATAGSSMYTATCQASCS

What was measured:
[1] = molecular target: exendin-asp3 tetramethylrhodamine conjugate (tetramethylrhodamine (TMR) fluorophore (conjugation position shown in Figure 2A))
[2] = molecular target: exendin-phe1 tetramethylrhodamine conjugate (tetramethylrhodamine (TMR) fluorophore (conjugation position shown in Figure 2A))
[3] = molecular target: exendin-asp3 Cy5 conjugate (Cy5 fluorophore (conjugation position shown in Figure 2A))
[4] = molecular target: exendin-phe1 Cy5 conjugate (Cy5 fluorophore (conjugation position shown in Figure 2A))

Binder	Kd [1]	Kd [2]	Kd [3]	Kd [4]
B1	5.9 nM	6.7 nM	2.7 nM	–
B2	–	12.3 nM	–	0.7 nM
B3	–	18.5 nM	2.8 nM	–
